From US20150353608A1
Where a chain is given by its changes, count along the chain named. Ends that are not written are not given here.

B1: polypeptide p17 (peptide)
peptide: GPGISAFSPGRGVYDPETGTWYDAAWHLGELVWATYYDPETGTWEPDWQRMLGQ
B2: variant polypeptide p17_P46A (peptide)
peptide: B1 peptide with P46A
B3: variant polypeptide p17_D47A (peptide)
peptide: B1 peptide with D47A
B4: variant polypeptide p17_W48A (peptide)
peptide: B1 peptide with W48A
B5: variant polypeptide p17_R50A (peptide)
peptide: B1 peptide with R50A
B6: variant polypeptide p17_M51A (peptide)
peptide: B1 peptide with M51A
B7: recombinant phage displaying polypeptide SEQ ID NO: 57 (protein, T7 phage, not shown: large carriers)
chain: B1 peptide
modifications: ends and bridges not checked
B8: recombinant phage displaying polypeptide SEQ ID NO: 63 (protein, T7 phage, not shown: large carriers)
chain: SNFVRSPSAWYDPETGTWYDAAWHLGELVWATYYDPETGTWEPDWQRMLGQ
modifications: not fully specified; ends and bridges not checked
B9: recombinant phage displaying polypeptide SEQ ID NO: 64 (protein, T7 phage, not shown: large carriers)
chain: IPYGFPGRGEYDPETGTWYDAAWHLGELVWATYYDPETGTWEPDWQRMLGQ
modifications: ends and bridges not checked
B10: recombinant phage displaying polypeptide SEQ ID NO: 65 (protein, T7 phage, not shown: large carriers)
chain: GPYNIPDSAVYDPETGTWYDAAWHLGELVWATYYDPETGTWEPDWQRMLGQ
modifications: ends and bridges not checked
B11: recombinant phage displaying polypeptide SEQ ID NO: 66 (protein, T7 phage, not shown: large carriers)
chain: B10 chain with G1W, Y3L, I5A, D7S, V10F
modifications: ends and bridges not checked
B12: recombinant phage displaying polypeptide SEQ ID NO: 67 (protein, T7 phage, not shown: large carriers)
chain: VPPRFSSSAQYDPETGTWYDAAWHLGELVWATYYDPETGTWEPDWQRMLGQ
modifications: ends and bridges not checked
B13: recombinant phage displaying polypeptide SEQ ID NO: 68 (protein, T7 phage, not shown: large carriers)
chain: FLVGLHAGAVYDPETGTWYDAAWHLGELVWATYYDPETGTWEPDWQRMLGQ
modifications: ends and bridges not checked
B14: recombinant phage displaying polypeptide SEQ ID NO: 69 (protein, T7 phage, not shown: large carriers)
chain: B12 chain with P2V, P3R, R4V, F5D, S6H, Q10V
modifications: ends and bridges not checked
B15: recombinant phage displaying polypeptide SEQ ID NO: 70 (protein, T7 phage, not shown: large carriers)
chain: B9 chain with I1W, P2M, Y3E, G4F, F5Y, E10V
modifications: ends and bridges not checked
B16: recombinant phage displaying polypeptide SEQ ID NO: 71 (protein, T7 phage, not shown: large carriers)
chain: DGVGPGSRGVYDPETGTWYDAAWHLGELVWATYYDPETGTWEPDWQRMLGQ
modifications: ends and bridges not checked
B17: recombinant phage displaying polypeptide SEQ ID NO: 72 (protein, T7 phage, not shown: large carriers)
chain: FVSSLPNSAMYDPETGTWYDAAWHLGELVWATYYDPETGTWEPDWQRMLGQ
modifications: ends and bridges not checked
B18: recombinant phage displaying polypeptide SEQ ID NO: 79 (protein, T7 phage, not shown: large carriers)
chain: B12 chain with V1G, P2S, P3C, R4K, A9C, Q10H
modifications: ends and bridges not checked; also: displayed on T7 phage coat protein g10
B19: recombinant phage displaying polypeptide SEQ ID NO: 80 (protein, T7 phage, not shown: large carriers)
chain: LIPPGGISPWYDPETGTWYDAAWHLGELVWATYYDPETGTWEPDWQRMLGQ
modifications: ends and bridges not checked

Target: Fc region prepared from human monoclonal IgG by papain digestion (human)
Test: SPR, Fc immobilized

Binder | Kd | fold decrease of binding activity against p17
DAAWHLGELVWATYYDPETGTWQPDWLYMTTR [polypeptide pep14] | 120 nM | –
DAAWHLGELVWATYYDPETGTWAPDWRLMQGQ [polypeptide pep11] | 510 nM | –
DAAWHLGELVWATYYDPETGTWLPDWQTMAQK [polypeptide pep21] | 100 nM | –
B1 | 1.6 nM | –
B2 | 5.6 nM | –
B3 | 45 nM | –
B4 | 200 nM | > 100 times
B5 | 7.8 nM | –
B6 | 180 nM | > 100 times

Target: human Fc region manufactured by Jackson ImmunoResearch Laboratories, Inc. (human)
Test: SPR, Fc immobilized, 25 C

Binder | Kd
GVVRQWSGGGGSGGGGRSSIAYGGG [polypeptide 2A1Gly] | 23000 nM
RSSIAYGGG [polypeptide RSS] | 110000 nM

Target: human Fc region manufactured by Jackson ImmunoResearch Laboratories, Inc. (human)
Test: phage ELISA, HRP-labelled Fc

Binder | O.D. 415
DAAWHLGELVWATYYDPETGTWLPDWQTMAQK (peptide, T7 phage, not shown: large carriers, ends and bridges not checked) [recombinant phage displaying polypeptide SEQ ID NO: 26] | 0.43
DAAWHLGELVWATYYDPETGTWEPDWKLMQRP (peptide, T7 phage, not shown: large carriers, ends and bridges not checked) [recombinant phage displaying polypeptide SEQ ID NO: 30] | 0.287
DAAWHLGELVWATYYDPETGTWQPDWDIMAGH (peptide, T7 phage, not shown: large carriers, ends and bridges not checked) [recombinant phage displaying polypeptide SEQ ID NO: 31] | 0.295
DAAWHLGELVWATYYDPETGTWLPDWDVMVRQ (peptide, T7 phage, not shown: large carriers, ends and bridges not checked) [recombinant phage displaying polypeptide SEQ ID NO: 32] | 0.352
DAAWHLGELVWATYYDPETGTWVPDWERMKQH (peptide, T7 phage, not shown: large carriers, ends and bridges not checked) [recombinant phage displaying polypeptide SEQ ID NO: 33] | 0.305
DAAWHLGELVWATYYDPETGTWEPDWSKMRPQ (peptide, T7 phage, not shown: large carriers, ends and bridges not checked) [recombinant phage displaying polypeptide SEQ ID NO: 34] | 0.281
DAAWHLGELVWATYYDPETGTWRPDWAVMATP (peptide, T7 phage, not shown: large carriers, ends and bridges not checked) [recombinant phage displaying polypeptide SEQ ID NO: 35] | 0.32
DAAWHLGELVWATYYDPETGTWKPDWRMMGVP (peptide, T7 phage, not shown: large carriers, ends and bridges not checked) [recombinant phage displaying polypeptide SEQ ID NO: 36] | 0.287
DAAWHLGELVWATYYDPETGTWLPDWDYMSSK (peptide, T7 phage, not shown: large carriers, ends and bridges not checked) [recombinant phage displaying polypeptide SEQ ID NO: 37] | 0.235
DAAWHLGELVWATYYDPETGTWMPDWDRMLRR (peptide, T7 phage, not shown: large carriers, ends and bridges not checked) [recombinant phage displaying polypeptide SEQ ID NO: 38] | 0.29
DAAWHLGELVWATYYDPETGTWTPDWNAMSQR (peptide, T7 phage, not shown: large carriers, ends and bridges not checked) [recombinant phage displaying polypeptide SEQ ID NO: 39] | 0.273
EAWHLGELVWATYYDPETGTWRPDWSRMSGR (peptide, T7 phage, not shown: large carriers, ends and bridges not checked) [recombinant phage displaying polypeptide SEQ ID NO: 55] | 0.252
B7 | 0.229
B8 | 0.272
B9 | 0.213
B10 | 0.291
B11 | 0.182
B12 | 0.25
B13 | 0.186

Binder | O.D. 415
B14 | 0.201
B15 | 0.189
B16 | 0.219
B17 | 0.229
B18 | 0.329
B19 | 0.215
YDPGTGTWRSYLRFGGG (peptide, T7 phage, not shown: large carriers, ends and bridges not checked) [recombinant phage displaying polypeptide SEQ ID NO: 3] | 0.278
YDPYTGTWRSSIWVLSG (peptide, T7 phage, not shown: large carriers, ends and bridges not checked) [recombinant phage displaying polypeptide SEQ ID NO: 4] | 0.165
YDPGTGTWRSWLSFNVG (peptide, T7 phage, not shown: large carriers, ends and bridges not checked) [recombinant phage displaying polypeptide SEQ ID NO: 5] | 0.155
YDPWTGTWRSFIWGGGG (peptide, T7 phage, not shown: large carriers, ends and bridges not checked) [recombinant phage displaying polypeptide SEQ ID NO: 6] | 0.149
YDPRTGTWLLYASRLLG (peptide, T7 phage, not shown: large carriers, ends and bridges not checked) [recombinant phage displaying polypeptide SEQ ID NO: 7] | 0.214
YDPVTGTWTSSIASWMG (peptide, T7 phage, not shown: large carriers, ends and bridges not checked) [recombinant phage displaying polypeptide SEQ ID NO: 8] | 0.223
YDPRTGTWRRSSLSYSG (peptide, T7 phage, not shown: large carriers, ends and bridges not checked) [recombinant phage displaying polypeptide SEQ ID NO: 9] | 0.193
AGSRRAHGYDPRTGTWRSSIAYGGG (peptide, T7 phage, not shown: large carriers, ends and bridges not checked) [recombinant phage displaying polypeptide SEQ ID NO: 12] | 0.267
SWRRRGSSYDPRTGTWRSSIAYGGG (peptide, T7 phage, not shown: large carriers, ends and bridges not checked) [recombinant phage displaying polypeptide SEQ ID NO: 14] | 0.282
TGRGRSARYDPRTGTWRSSIAYGGG (peptide, T7 phage, not shown: large carriers, ends and bridges not checked) [recombinant phage displaying polypeptide SEQ ID NO: 15] | 0.396
HWVNGRSGYDPRTGTWRSSIAYGGG (peptide, T7 phage, not shown: large carriers, ends and bridges not checked) [recombinant phage displaying polypeptide SEQ ID NO: 16] | 0.373
GSVVRWRGYDPRTGTWRSSIAYGGG (peptide, T7 phage, not shown: large carriers, ends and bridges not checked) [recombinant phage displaying polypeptide SEQ ID NO: 18] | 0.36
GAVYRRSFYDPRTGTWRSSIAYRGG (peptide, T7 phage, not shown: large carriers, ends and bridges not checked) [recombinant phage displaying polypeptide SEQ ID NO: 19] | 0.353
